From article PMC8915838

Columns and labels:
[1] = target: leukotriene A4 hydrolase (LTA4H) (UniProt P09960); assay: SPR
[2] = target: plasmin; assay: enzyme inhibition
[3] = target: leukotriene A4 hydrolase (LTA4H) (UniProt P09960); assay: enzyme inhibition
[4] = target: trypsin; assay: enzyme inhibition

MTX, immunosuppressant protein from the submandibular salivary glands of the bat Myotis pilosus (natural protein)
Kd [1]: 0.45 nM
Ki [2]: 80 nM
Ki [3]: 1230 nM
Ki [4]: 67.5 nM
